One may read the Kd as the constant that tells how readily two partners part at equilibrium. Low readings indicate a tighter complex, high ones a looser complex.

For the assay, the target named is human plasma fibrinogen (human) (UniProt P02671). As to the kind of experiment: ELISA. Background: An ELISA detects its analyte on a solid surface through an enzyme-linked reagent.
Chain of UniProt P02671 (P02671 36-866, chain 1 of 3): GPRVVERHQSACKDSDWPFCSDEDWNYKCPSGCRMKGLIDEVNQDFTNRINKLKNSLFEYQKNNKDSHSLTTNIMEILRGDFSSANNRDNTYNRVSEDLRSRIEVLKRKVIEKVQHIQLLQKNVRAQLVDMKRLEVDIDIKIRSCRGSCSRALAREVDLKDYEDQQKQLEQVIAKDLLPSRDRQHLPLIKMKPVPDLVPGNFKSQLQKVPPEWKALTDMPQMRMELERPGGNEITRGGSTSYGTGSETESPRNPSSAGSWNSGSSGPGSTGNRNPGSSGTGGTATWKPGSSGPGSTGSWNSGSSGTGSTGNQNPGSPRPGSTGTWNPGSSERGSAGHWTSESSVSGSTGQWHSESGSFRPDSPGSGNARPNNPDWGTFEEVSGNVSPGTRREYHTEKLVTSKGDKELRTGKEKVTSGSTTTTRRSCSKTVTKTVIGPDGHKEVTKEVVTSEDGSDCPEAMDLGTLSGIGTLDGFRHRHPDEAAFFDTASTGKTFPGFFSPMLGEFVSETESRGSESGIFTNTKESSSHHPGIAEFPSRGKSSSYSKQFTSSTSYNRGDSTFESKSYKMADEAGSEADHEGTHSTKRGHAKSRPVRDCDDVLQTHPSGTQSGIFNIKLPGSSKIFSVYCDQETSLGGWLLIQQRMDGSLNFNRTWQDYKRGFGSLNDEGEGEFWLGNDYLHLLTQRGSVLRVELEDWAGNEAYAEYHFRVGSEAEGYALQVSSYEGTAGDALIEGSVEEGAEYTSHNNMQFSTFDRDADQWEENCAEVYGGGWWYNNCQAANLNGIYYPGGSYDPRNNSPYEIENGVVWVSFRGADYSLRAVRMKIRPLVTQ
Chain of UniProt P02671 (P02675 45-491, chain 2 of 3, further chain): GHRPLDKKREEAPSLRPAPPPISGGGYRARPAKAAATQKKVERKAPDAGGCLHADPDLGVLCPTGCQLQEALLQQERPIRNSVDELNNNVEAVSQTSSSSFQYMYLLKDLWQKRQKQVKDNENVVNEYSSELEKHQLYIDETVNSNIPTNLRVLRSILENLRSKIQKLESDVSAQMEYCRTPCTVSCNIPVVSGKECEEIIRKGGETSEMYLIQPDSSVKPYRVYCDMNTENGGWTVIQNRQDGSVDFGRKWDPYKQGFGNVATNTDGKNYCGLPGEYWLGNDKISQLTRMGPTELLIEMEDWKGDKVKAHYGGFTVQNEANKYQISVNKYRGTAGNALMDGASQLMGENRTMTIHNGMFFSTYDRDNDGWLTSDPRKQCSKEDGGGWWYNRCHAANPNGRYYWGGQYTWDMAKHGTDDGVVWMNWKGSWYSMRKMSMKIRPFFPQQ
Chain of UniProt P02671 (P02679 27-453, chain 3 of 3, further chain): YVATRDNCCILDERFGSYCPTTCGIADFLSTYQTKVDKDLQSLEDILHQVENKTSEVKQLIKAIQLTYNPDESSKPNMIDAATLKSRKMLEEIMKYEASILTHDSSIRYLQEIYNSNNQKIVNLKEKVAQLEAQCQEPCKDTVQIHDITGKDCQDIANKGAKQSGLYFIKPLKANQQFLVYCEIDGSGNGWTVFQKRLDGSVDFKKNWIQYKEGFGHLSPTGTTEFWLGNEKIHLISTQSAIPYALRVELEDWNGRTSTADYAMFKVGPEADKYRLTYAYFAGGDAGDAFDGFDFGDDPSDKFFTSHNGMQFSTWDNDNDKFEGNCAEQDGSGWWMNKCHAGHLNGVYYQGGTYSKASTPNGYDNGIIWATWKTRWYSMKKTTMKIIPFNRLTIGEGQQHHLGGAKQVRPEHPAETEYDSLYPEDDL

“Histidine-tagged LigBCen2R (amino acids 1014–1123 of LigB) (domain or fragment)”: the equilibrium dissociation constant (Kd) is 117 µM.

Take “Histidine-tagged LigB-12 (amino acids 1029–1123 of LigB) (domain or fragment)”: the Kd came out at 125 µM.

The values above are taken from PMC4139157.
